The source of these data is the domain aggregation screens of Martell et al. (2025).

This data set in a line: soluble fraction after stress (log2 fold change); higher = more stays soluble; pooled small domains, quantitative proteomics. The following applies: stress: pH 4. An outline of the steps:
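Custom libraries of small protein domains were pooled and measured with high-throughput quantitative proteomics after pH 4 stress. The read-out is the fold change in the amount of each domain that stays soluble after the acid stress, taken as a measure of aggregation propensity. Fold changes are on a log2 scale, and higher values mean more of the domain stayed soluble.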
Consider “HMGGTAGKINAIGVNFRTGPSTSYTSLGLLGKDTAVTVIGTSGKWYKVTIVSTGKTGYVYATYVNLTP”, for which the “soluble fraction (log2)” value is -0.102. Next, “HMGGVIEDDRGQWAHPGEVTKINSNNITMKGVDFPVLGISDTGDKKMMQPGKDYKFDGNSVTEYPMA”: -0.5. Under “HMGGWEEGVYVVREGDTLSDIVHDAVKGTEIHPDFILNAIVRVNPSAFVRGNPSWMLAGKKIK” stands -0.373.

Regarding “HMGGYVTGTIDLTKFGYAFVITEESEDDVFVAARNLNTALHGDQVKVLLYARHKGKRPEGEVVEIISRSRA”, the “soluble fraction (log2)” value is -1.4. Under “HMGHEEPITFDRLPQAAQTFLKTHFDTLTVAYIVADRKFMGVEYEVKYTDRTEVDFRSDGQWESV” stands -0.443; under “HMGHKTLTVELQEKIENLPQTLDKYNLTLGNNKMSVDYTYSVKEKQTGITNLLQDLKEHKFDIVYLVGQDN”, -0.613. Under “HMGHLSNENAGRLLDRVLNDKIHAIMLGHLSKENNMPELAHEAVRMEITMGESRYKADDFPIYVA” stands -0.00322. Next, “HMGHTKLVVDIVEELKLEQGALLPILHAIQDELGYVPTKSVPFIADSLNLSRAEVHGVISFYHYFR”: -0.741; “HMGIAWGMLREQVAASDVSYRSEVLDILDRTPVWIYDAEGKIVDGRKKRLMDLQGGEPYRHMLEHFFPDLR”: -1.96; “HMGIDAIDNFVSKIIMKIEGLGESEVPTSTIGKFIMEGLQYLDTVAYVRYASVYKNFKEAKDFEQFVGSL”: -0.566.

For the sequence “HMGIDRPLFTLAQFARQIGEQVKISLSLPQDGRRRLQGKVLSVGESGIVLDVDGREFTVAIGNVDKARL”, the “soluble fraction (log2)” value is -0.197. Next, “HMGIDSSVYVEARYELGHLYLKQKKYAAAYASFKEILDMYASTTPGVLPGAYNKLAEIGMKRIPKNKL”: -0.182.

Regarding “HMGIIQAQIPGLVSRLFVKKGDKVAVNQRLFILEAMKMENEIDSPIQGMVEKIHITTGSKVEKGDLIMEIV”, the “soluble fraction (log2)” value is no less than 0.43. Under “HMGIIYGKNPVLEAISSGTTINKIYAQTSNKEIDSVIKEALKRKIIVVNTDKQKLDKMIDGKNSQGIIASI” stands 0.36; under “HMGIKAADIVTNDIQFNTQAQFDKYKDLYPTLGWGNYDPNKTYTMQGFKNKLKPNELFTGTPNLKIEDT”, -0.105; under “HMGIKDRIVYIMEKEKLSIPLFAKKIGIGPSTLLHIIRGKNAPSLQVVQAIHKAYPDIDLNWLI”, 0.0346. Next, “HMGIKSSASLQEAAEKAQSAYYDIEHSGVATAVDIQRAWVAMVAAQIDAGEKLDSGTITLYERLKTST”: -0.0327; “HMGIMNFDTWLKSLPGTPTPTIAAKKSGLAAPTLLRHVERGYSTADNVIAIAKAYGVSPIDALVDNGML”: -0.201. In the case of “HMGIMSEITHRVLRLLGLLESRSTWTGSDLAERLGVTQRTIRRDVIRLRELGYQVDSVQGLDGGYRMS”, the “soluble fraction (log2)” value is -0.0721. Next, “HMGIPVSIGQLDFNQARGNLALQVRASDFAALEQLRQRLGQTGESVQLGSASRDGDAVSARVVIGGQ”: -0.0672; “HMGIQQNHMTLHARSVASSANVPAEHFDTLVEKLIESGDIKVWKAREILMNLSRQHEEILDES”: -0.365; “HMGISGSDLEKMIRNILVNNTDVVETIKSGQDKKGKKQKFLQGLIMKEARGQTDPREAASLLAKLLE”: 0.202. As for “HMGITMFGQNLKKLRTSKNLSQSKLSKILGISSSTIGMYEQGRRFPDQTILTKIADFFDVSTDYLLGR”, the “soluble fraction (log2)” value amounted to 0.339. With “HMGIVAQLPTIRVNGKTLYYYDAQSGDNIYSIAEKLGVTVEDIRANNPGVADGVKPRMRLFFPTSLAK”, the “soluble fraction (log2)” value was found to be 0.0671. In the case of “HMGIVYGVIKENWDQDHPGMVKVEILQGESGKNVSDWIPVMSPYAGKEFGAYALPEIGTQAVVAFE”, the “soluble fraction (log2)” value was -0.0368. As for “HMGIYDQAAAAYIEFVESKNRAPKWNELIDALYKENGKDWIDRSTLHGLLRRKEFQELLAQKRKEHLV”, the “soluble fraction (log2)” value was -0.159.

With “HMGIYFIIAAKNQENNIEEFIRTTLFRIVYGKEESINNITLVDLKSKDNTKNIMEEIARENENVKV”, the “soluble fraction (log2)” value was -0.696. Next, “HMGKAPREVQVGELLRVPALNAEGEVLRRDGESVELSIQGKKLRLPLAQLEAFSPRRFARRGEGKVRGRIE”: 0.266; “HMGKDLLGYEVFAESGDLVGILKDVMWLPHSDVYVITKGGKEFLIPVIPEVVKGINHEQGVIVISPMEGLL”: -0.572. Under “HMGKDTLKLKKNAIPYDENGKKLTNLGYSYIKKTTVLNYYGTKIINGSTYYFLGDGVYIKAANVGTTSH” stands 0.232; under “HMGKEYERALQQVTKSEIDSDEKLQQQMDALVNSPRISDKEDAWALLLVKKLRNEGVEWDELPDVLSERVQ”, -0.856.

In the case of “HMGKGGVAYLLESEFGIELPKDMQREFGPIANDIVDSLGREVSGAELKSMFWKEYIERETPFLLLLVTGQL”, the “soluble fraction (log2)” value is -0.762.

“HMGKIFSELTPREIEVVRLIADGLSNQQIAEELFLSNGTVRNHISTILEKTGLEHRTQIAVMWLR”: the “soluble fraction (log2)” value is -0.742. Next, “HMGKKIVERRNTILNMVNKYGTLDFPQLRDAFPDVSDVTLRKDLQYLDSTKQAIRTHGGIKSI”: -0.00897; “HMGKLQFREKLNGILELGKEKHRVLTMEDVEKYFEEDALSEEQMELVYDYLLSQKIAVTGYVKK”: 0.414; “HMGKPPNNRIHRAKRDYALNLVKEHYPDFGPTLAAEKLAEHHGFTVSRETLRKWMIEDGIWLSRKQRR”: -0.0217. Under “HMGKQIKEIVEEYYDSTSKNSPVGGSWKTSLDGVDLTSPNITIWTRTKIKYVDGSESIVTPQSL” stands -0.528; under “HMGKRPTIQMVAEMAGVSRGTVDRVLNGRSYVSAQVRQRVLAALQETGYISSREHHQQALQS”, 0.0645; under “HMGKRRGLKVAEEVFADRGYNPDGTLVNRSLPGAFVKDPDEAIARVIKMVKTKKVTAVNGEEIDIAADSI”, -0.462.

As to “HMGKSDEIFIQKSALYEELGQPDRALEMIYSALKSDSLNIDVLHRLVTLLINQNKNEDAILYNQKIID”, the “soluble fraction (log2)” value was -0.424.

With “HMGKTEETLQMEKLVEALRRSGRMKYEDAYRIVYAAFPDAKDFEGMLSGAIRAGFIELQMGNDGAFLRAL”, the “soluble fraction (log2)” value is -0.67. For “HMGKVNGFEITVIEGKNVVGSITPRQAIAKNSDGVIQLRGEQSFSATDQVLINELAFYIKSNNLKA”, the “soluble fraction (log2)” value was -1.23. Next, “HMGLAALLQSGPVAGTVLSHQPGGKVVIAFQGQAYPLNLKGRTLQPGQSVLARMAGEQISLEVI”: -0.0159; “HMGLDERNLKLFAASLLEQAGKKITESTMTYLLDKTGSDMENIQNEVEKIIGYTMNHTVVTTEDIDAV”: -0.745. Under “HMGLDPVFKKWVDDNPWYTENRVLRALTHDYAEELKQTNPQLVGVEFLDQVKKRVQADHPEFFQ” stands -0.552. On to “HMGLGDLEVVDSIGKIRRDGQQMILAFGRHKGRDVQEVYNEDPRYINWLLSPKGIEDENGRGKVRDYLGIN”, for which the “soluble fraction (log2)” value was -0.678. Next, “HMGLKQADFEELASRIFTVLEEKSMTPAEIVRKLNLEPDRISIVIQYLLDEGKLNIKDGFINNSA”: -0.773. Under “HMGLLGIYPNPVEGGSVRLLSDADLFGSRFELYDQSGKLVLNGFVTEGNFVSVKGISSGLYISVSYT” stands 0.00514; under “HMGLLGTDISAETMIGYFKKIDLGFDEETQEVIVPSWRQDLLRDADIAEEVARFYGYDNIPTTLPSGEST”, -0.736; under “HMGLNLIGLKRSGFAPEEVKAMTRAYMYIFKSAEGNFESRLAKAHEKYKDDALIMEMVEFIDDALKG”, -0.227. Next, “HMGLQEADKQDRIARMKELISFLNEAAKAYYQEGREIVSNLEYDKAYDALLSLEKESGVVLSGSPSQNVG”: -0.659. Take “HMGLRERLLNYIAYKGIDKATLERKSGLSNDAVNKMGDNTRVSTLDKISNAFPDINIAWLKTGVGEMILG”: the “soluble fraction (log2)” value was 0.146. Next, “HMGLSAALKARLREVINEMAKSGAQPKLREWALAEGIGNFAKPETPEAAEAVIAKAQELLAEA”: 0.429. In the case of “HMGLSASVIQMFADLGYTSEGRSTKEMITDYQIDHSIIKNSTEDGAGTYGPRTKASLSTVHAQYI”, the “soluble fraction (log2)” value is -0.535.

For “HMGLSENALAMLKQQETVLIRLIDGRGNQGALASINLIVSRILNLDIVDRTPEDLLRVIASEGEQND”, the “soluble fraction (log2)” value is -1.54. Next, “HMGMIRFSKEEQMLMMLYSPGSRLGLIAELESMKLQLNSRERKLRNLAESVLKKLEQITDEEFMQFDF”: -1.11. Next, “HMGMNSGQADFRGISLALSVDAEAEAQRLFTALADGGQVQMPLSKTFFSPAFGMVADRFGVGWMVVTN”: -0.0936.

Regarding “HMGMSENIDKVAGGIPYKVEGNKAIINEPLDDATKERLMGKAKEHGYHAAPNQAGGITITLK”, the “soluble fraction (log2)” value came to 0.0104. Under “HMGMSKQKQSSLVRIIMQEISDANEGRMKMSQIIDAALIKGISDSTVRSVISRLSTTGAIYEPQTGTYEW” stands -0.374. With “HMGNEEEEAIREAEEAIERVLEYGEPQELNPQNGFIRRLQHQLAEKSHLSSESVGVEPYRRVRISK”, the “soluble fraction (log2)” value is -0.00812. Under “HMGNFFDSAILALKNAIQENYGGNVSQAARSLGISVPTLHTWIKGDRKPSLEKLSPILDALNAKIVL” stands -0.276; under “HMGNFGDLLKILLDEKELSMGELSKKSGIDKSTISRIANNKQKPNINHLEKMAIHLNINLEELLKASGYEF”, -0.857. Under “HMGNFQNIFRKLRTSSNLTQNAIAEKLGISRSTIGMYETGAREPDFETLEKIADYFNVDTDFLLGRTNQTT” stands -0.0101; under “HMGNKDAQLVHLAKMNEIQIELMKTGRGYMVTDQNVYNLAKKMGENMGFKHPDLFLTDPAKV”, -0.0687; under “HMGNKDIEILFSEIVEMRNRIIHGFRITSKQGEQILATKTRKKDGNIQFEITKEYLLDFIKKNEELSDMLY”, -1.49. Next, “HMGNKWALLVVFILNENGSTRFNQLARQIPDISTKVLSNTLQILEADGLVKRTVFPEVPIRVEYELTATGK”: -0.987; “HMGNLIIFYDEGIGSGPLMKAVNDSGVSLVYEYKNLHGIAIRPSAKTNIQDAIAYFQKVNGVLSVEQ”: -0.65. In the case of “HMGNNKLVLSLAVALKNTPNFLKNYNYKISKDKKFIEILLSKQINEVSDIIINLKKNNINIVDLNIKKR”, the “soluble fraction (log2)” value was -0.0131.

With “HMGNNTEITYSEFIRQAEAGNVQYVTVDGEKLLISATDGKSYYTINPRDDQMTDRLLNSGVEIRAEPQ”, the “soluble fraction (log2)” value was -0.482.
